Tested on: six V600E BRAF melanoma cell lines
Assay: Screening of recombinant RTK ligands for ability to confer resistance to BRAFi (PLX4720) or MEKi (PD184352) (Table 4)
Format: cell-based, human
Design: ability of recombinant RTK ligand to confer resistance / ability of recombinant RTK ligand to confer resistance (screening value): scale not given here
Summary of the method: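 Six V600E BRAF melanoma lines treated with PLX4720 or PD184352 after addition of 22 recombinant RTK ligands, scored for drug resistance. Activation of selected RTKs confirmed by western blotting and high-throughput tyrosine kinase phosphorylation profiling.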

B1: Gas6 (protein, UniProt Q14393 31-678, looked up)
Growth arrest-specific …: ALLPAREATQFLRPRQRRAFQVFEEAKQGHLERECVEELCSREEAREVFENDPETDYFYPRYLDCINKYGSPYTKNSGFATCVQNLPDQCTPNPCDRKGTQACQDLMGNFFCLCKAGWGGRLCDKDVNECSQENGGCLQICHNKPGSFHCSCHSGFELSSDGRTCQDIDECADSEACGEARCKNLPGSYSCLCDEGFAYSSQEKACRDVDECLQGRCEQVCVNSPGSYTCHCDGRGGLKLSQDMDTCEDILPCVPFSVAKSVKSLYLGRMFSGTPVIRLRFKRLQPTRLVAEFDFRTFDPEGILLFAGGHQDSTWIVLALRAGRLELQLRYNGVGRVTSSGPVINHGMWQTISVEELARNLVIKVNRDAVMKIAVAGDLFQPERGLYHLNLTVGGIPFHEKDLVQPINPRLDGCMRSWNWLNGEDTTIQETVKVNTRMQCFSVTERGSFYPGSGFAFYSLDYMRTPLDVGTESTWEVEVVAHIRPAADTGVLFALWAPDLRAVPLSVALVDYHSTKKLKKQLVVLAVEHTALALMEIKVCDGQEHVVTVSLRDGEATLEVDGTRGQSEVSAAQLQERLAVLERHLRSPVLTFAGGLPDVPVTSAPVTAFYRGCMTLEVNRRLLDLDEAAYKHSDITAHSCPPVEPAAA
- ability of recombinant RTK ligand to confer resistance (A2058, PD184352 - 1 uM, ligand 6.25 ng/ml): 0.99
- ability of recombinant RTK ligand to confer resistance (A2058, PD184352 - 1 uM, ligand 25 ng/ml): 0.97
- ability of recombinant RTK ligand to confer resistance (A2058, PD184352 - 1 uM, ligand 100 ng/ml): 1.02
- ability of recombinant RTK ligand to confer resistance (A2058, PD184352 - 1 uM, ligand 400 ng/ml): 0.97
- ability of recombinant RTK ligand to confer resistance (A2058, PD184352 - 1 uM, ligand 1600 ng/ml): 0.95
- ability of recombinant RTK ligand to confer resistance (A2058, PLX4720 - 2 uM, ligand 6.25 ng/ml): 1.01
- ability of recombinant RTK ligand to confer resistance (A2058, PLX4720 - 2 uM, ligand 25 ng/ml): 1.00
- ability of recombinant RTK ligand to confer resistance (A2058, PLX4720 - 2 uM, ligand 100 ng/ml): 0.98
- ability of recombinant RTK ligand to confer resistance (A2058, PLX4720 - 2 uM, ligand 400 ng/ml): 0.98
- ability of recombinant RTK ligand to confer resistance (A2058, PLX4720 - 2 uM, ligand 1600 ng/ml): 0.97
- ability of recombinant RTK ligand to confer resistance (C32, PD184352 - 1 uM, ligand 6.25 ng/ml): 1.02
- ability of recombinant RTK ligand to confer resistance (C32, PD184352 - 1 uM, ligand 25 ng/ml): 1.01
- ability of recombinant RTK ligand to confer resistance (C32, PD184352 - 1 uM, ligand 100 ng/ml): 1.01
- ability of recombinant RTK ligand to confer resistance (C32, PD184352 - 1 uM, ligand 400 ng/ml): 1.15
- ability of recombinant RTK ligand to confer resistance (C32, PD184352 - 1 uM, ligand 1600 ng/ml): 0.91
- ability of recombinant RTK ligand to confer resistance (C32, PLX4720 - 2 uM, ligand 6.25 ng/ml): 1.05
- ability of recombinant RTK ligand to confer resistance (C32, PLX4720 - 2 uM, ligand 25 ng/ml): 0.89
- ability of recombinant RTK ligand to confer resistance (C32, PLX4720 - 2 uM, ligand 100 ng/ml): 1.00
- ability of recombinant RTK ligand to confer resistance (C32, PLX4720 - 2 uM, ligand 400 ng/ml): 1.05
- ability of recombinant RTK ligand to confer resistance (C32, PLX4720 - 2 uM, ligand 1600 ng/ml): 0.95
- ability of recombinant RTK ligand to confer resistance (Colo 829, PD184352 - 1 uM, ligand 6.25 ng/ml): 0.98
- ability of recombinant RTK ligand to confer resistance (Colo 829, PD184352 - 1 uM, ligand 25 ng/ml): 1.01
- ability of recombinant RTK ligand to confer resistance (Colo 829, PD184352 - 1 uM, ligand 100 ng/ml): 0.98
- ability of recombinant RTK ligand to confer resistance (Colo 829, PD184352 - 1 uM, ligand 400 ng/ml): 0.99
- ability of recombinant RTK ligand to confer resistance (Colo 829, PD184352 - 1 uM, ligand 1600 ng/ml): 1.02
- ability of recombinant RTK ligand to confer resistance (Colo 829, PLX4720 - 2 uM, ligand 6.25 ng/ml): 0.97
- ability of recombinant RTK ligand to confer resistance (Colo 829, PLX4720 - 2 uM, ligand 25 ng/ml): 1.02
- ability of recombinant RTK ligand to confer resistance (Colo 829, PLX4720 - 2 uM, ligand 100 ng/ml): 0.94
- ability of recombinant RTK ligand to confer resistance (Colo 829, PLX4720 - 2 uM, ligand 400 ng/ml): 0.99
- ability of recombinant RTK ligand to confer resistance (Colo 829, PLX4720 - 2 uM, ligand 1600 ng/ml): 1.03
- ability of recombinant RTK ligand to confer resistance (G-361, PD184352 - 1 uM, ligand 6.25 ng/ml): 1.03
- ability of recombinant RTK ligand to confer resistance (G-361, PD184352 - 1 uM, ligand 25 ng/ml): 1.00
- ability of recombinant RTK ligand to confer resistance (G-361, PD184352 - 1 uM, ligand 100 ng/ml): 0.91
- ability of recombinant RTK ligand to confer resistance (G-361, PD184352 - 1 uM, ligand 400 ng/ml): 0.94
- ability of recombinant RTK ligand to confer resistance (G-361, PD184352 - 1 uM, ligand 1600 ng/ml): 0.88
- ability of recombinant RTK ligand to confer resistance (G-361, PLX4720 - 2 uM, ligand 6.25 ng/ml): 0.97
- ability of recombinant RTK ligand to confer resistance (G-361, PLX4720 - 2 uM, ligand 25 ng/ml): 0.95
- ability of recombinant RTK ligand to confer resistance (G-361, PLX4720 - 2 uM, ligand 100 ng/ml): 0.98
- ability of recombinant RTK ligand to confer resistance (G-361, PLX4720 - 2 uM, ligand 400 ng/ml): 0.97
- ability of recombinant RTK ligand to confer resistance (G-361, PLX4720 - 2 uM, ligand 1600 ng/ml): 0.85
- ability of recombinant RTK ligand to confer resistance (SK-MEL-5, PD184352 - 1 uM, ligand 6.25 ng/ml): 0.99
- ability of recombinant RTK ligand to confer resistance (SK-MEL-5, PD184352 - 1 uM, ligand 25 ng/ml): 1.01
- ability of recombinant RTK ligand to confer resistance (SK-MEL-5, PD184352 - 1 uM, ligand 100 ng/ml): 0.97
- ability of recombinant RTK ligand to confer resistance (SK-MEL-5, PD184352 - 1 uM, ligand 400 ng/ml): 0.89
- ability of recombinant RTK ligand to confer resistance (SK-MEL-5, PD184352 - 1 uM, ligand 1600 ng/ml): 0.94
- ability of recombinant RTK ligand to confer resistance (SK-MEL-5, PLX4720 - 2 uM, ligand 6.25 ng/ml): 0.98
- ability of recombinant RTK ligand to confer resistance (SK-MEL-5, PLX4720 - 2 uM, ligand 25 ng/ml): 1.00
- ability of recombinant RTK ligand to confer resistance (SK-MEL-5, PLX4720 - 2 uM, ligand 100 ng/ml): 1.03
- ability of recombinant RTK ligand to confer resistance (SK-MEL-5, PLX4720 - 2 uM, ligand 400 ng/ml): 1.05
- ability of recombinant RTK ligand to confer resistance (SK-MEL-5, PLX4720 - 2 uM, ligand 1600 ng/ml): 0.97
- ability of recombinant RTK ligand to confer resistance (SK-MEL-28, PD184352 - 1 uM, ligand 6.25 ng/ml): 1.03
- ability of recombinant RTK ligand to confer resistance (SK-MEL-28, PD184352 - 1 uM, ligand 25 ng/ml): 0.87
- ability of recombinant RTK ligand to confer resistance (SK-MEL-28, PD184352 - 1 uM, ligand 100 ng/ml): 1.00
- ability of recombinant RTK ligand to confer resistance (SK-MEL-28, PD184352 - 1 uM, ligand 400 ng/ml): 1.01
- ability of recombinant RTK ligand to confer resistance (SK-MEL-28, PD184352 - 1 uM, ligand 1600 ng/ml): 1.14
- ability of recombinant RTK ligand to confer resistance (SK-MEL-28, PLX4720 - 2 uM, ligand 6.25 ng/ml): 1.13
- ability of recombinant RTK ligand to confer resistance (SK-MEL-28, PLX4720 - 2 uM, ligand 25 ng/ml): 0.96
- ability of recombinant RTK ligand to confer resistance (SK-MEL-28, PLX4720 - 2 uM, ligand 100 ng/ml): 1.04
- ability of recombinant RTK ligand to confer resistance (SK-MEL-28, PLX4720 - 2 uM, ligand 400 ng/ml): 1.08
- ability of recombinant RTK ligand to confer resistance (SK-MEL-28, PLX4720 - 2 uM, ligand 1600 ng/ml): 1.22
